According to patent publication US10087225B2, “Formulation of MK2 inhibitor peptides” (MOERAE MATRIX, INC., priority 2015, dated 2018):

What was measured:
Assay in all cases: Kinase Profiling Assay
Format in all cases: biochemical
Details in all cases: for % activity: 100 μM
EGFR(L861Q)(h) = EGFR(L861Q)(h) (Homo sapiens, UniProt P00533, L861Q)
Ab1(T315I)(h) = Ab1(T315I)(h) (Homo sapiens, UniProt P00519, T315I)
CHK2(I157T)(h) = CHK2(I157T)(h) (Homo sapiens, UniProt O96017, I157T)
JAK2(h) = JAK2(h) (Homo sapiens, UniProt O60674)
Chain of JAK2(h) (O60674 whole entry): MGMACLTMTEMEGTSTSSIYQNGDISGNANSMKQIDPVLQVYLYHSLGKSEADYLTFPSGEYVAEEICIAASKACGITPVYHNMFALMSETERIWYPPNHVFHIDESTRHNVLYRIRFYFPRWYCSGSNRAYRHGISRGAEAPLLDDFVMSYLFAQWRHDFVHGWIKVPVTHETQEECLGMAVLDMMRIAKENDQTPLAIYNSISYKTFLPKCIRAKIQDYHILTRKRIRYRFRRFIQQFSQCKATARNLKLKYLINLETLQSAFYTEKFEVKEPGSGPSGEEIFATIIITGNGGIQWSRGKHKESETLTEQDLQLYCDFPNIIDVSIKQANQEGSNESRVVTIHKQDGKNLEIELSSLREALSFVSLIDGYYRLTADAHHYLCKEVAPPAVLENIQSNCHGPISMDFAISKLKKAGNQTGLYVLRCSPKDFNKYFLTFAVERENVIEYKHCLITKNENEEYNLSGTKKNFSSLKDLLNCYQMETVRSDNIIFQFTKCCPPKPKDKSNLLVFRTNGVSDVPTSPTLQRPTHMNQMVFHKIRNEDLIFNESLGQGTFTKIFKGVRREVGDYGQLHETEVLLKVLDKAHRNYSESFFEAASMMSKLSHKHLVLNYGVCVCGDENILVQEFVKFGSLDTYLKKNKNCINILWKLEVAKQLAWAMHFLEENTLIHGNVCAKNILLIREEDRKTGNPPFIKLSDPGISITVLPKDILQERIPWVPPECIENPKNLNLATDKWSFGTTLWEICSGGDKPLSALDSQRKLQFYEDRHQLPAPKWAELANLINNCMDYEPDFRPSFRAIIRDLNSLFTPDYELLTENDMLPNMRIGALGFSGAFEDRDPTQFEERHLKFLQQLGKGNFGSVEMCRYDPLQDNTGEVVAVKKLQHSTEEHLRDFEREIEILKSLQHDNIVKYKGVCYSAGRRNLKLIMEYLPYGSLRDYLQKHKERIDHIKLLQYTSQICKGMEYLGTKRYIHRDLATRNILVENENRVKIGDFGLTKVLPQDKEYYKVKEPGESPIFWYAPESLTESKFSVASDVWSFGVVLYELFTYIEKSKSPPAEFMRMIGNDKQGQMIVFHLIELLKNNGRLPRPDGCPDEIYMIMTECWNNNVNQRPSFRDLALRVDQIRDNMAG

cSRC(h) = cSRC(h) (Homo sapiens, UniProt P12931)
EphA4(h) = EphA4(h) (Homo sapiens, UniProt P54764)
Chain of EphA4(h) (P54764 20-986): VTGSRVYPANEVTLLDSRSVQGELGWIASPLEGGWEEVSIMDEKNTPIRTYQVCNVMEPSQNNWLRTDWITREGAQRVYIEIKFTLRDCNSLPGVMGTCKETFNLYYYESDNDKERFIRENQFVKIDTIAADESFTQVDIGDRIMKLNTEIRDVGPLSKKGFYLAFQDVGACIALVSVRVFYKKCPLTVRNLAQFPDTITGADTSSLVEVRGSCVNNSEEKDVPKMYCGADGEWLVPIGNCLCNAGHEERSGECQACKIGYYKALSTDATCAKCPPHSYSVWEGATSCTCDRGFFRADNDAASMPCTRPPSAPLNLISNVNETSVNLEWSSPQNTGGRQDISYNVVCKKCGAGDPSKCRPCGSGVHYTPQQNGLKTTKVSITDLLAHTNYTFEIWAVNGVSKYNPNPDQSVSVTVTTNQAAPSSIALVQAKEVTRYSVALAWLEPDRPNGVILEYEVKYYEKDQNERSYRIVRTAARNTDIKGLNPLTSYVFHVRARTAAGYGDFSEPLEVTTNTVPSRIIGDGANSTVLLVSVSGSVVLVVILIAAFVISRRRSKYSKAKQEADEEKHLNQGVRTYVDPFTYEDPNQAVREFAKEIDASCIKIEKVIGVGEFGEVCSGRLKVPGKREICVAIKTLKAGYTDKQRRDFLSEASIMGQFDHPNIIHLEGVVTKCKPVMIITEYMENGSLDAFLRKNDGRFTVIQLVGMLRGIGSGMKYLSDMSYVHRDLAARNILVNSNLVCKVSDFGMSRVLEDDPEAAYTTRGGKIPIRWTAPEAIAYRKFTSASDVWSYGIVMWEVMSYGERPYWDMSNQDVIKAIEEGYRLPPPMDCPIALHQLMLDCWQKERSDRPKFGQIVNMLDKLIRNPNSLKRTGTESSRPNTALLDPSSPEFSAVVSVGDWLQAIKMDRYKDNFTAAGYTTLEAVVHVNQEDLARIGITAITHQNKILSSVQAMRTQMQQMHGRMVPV

ALK4(h) = target: T1, ALK4(h) (Homo sapiens, UniProt P36896)
T1 sequence (P36896 24-505): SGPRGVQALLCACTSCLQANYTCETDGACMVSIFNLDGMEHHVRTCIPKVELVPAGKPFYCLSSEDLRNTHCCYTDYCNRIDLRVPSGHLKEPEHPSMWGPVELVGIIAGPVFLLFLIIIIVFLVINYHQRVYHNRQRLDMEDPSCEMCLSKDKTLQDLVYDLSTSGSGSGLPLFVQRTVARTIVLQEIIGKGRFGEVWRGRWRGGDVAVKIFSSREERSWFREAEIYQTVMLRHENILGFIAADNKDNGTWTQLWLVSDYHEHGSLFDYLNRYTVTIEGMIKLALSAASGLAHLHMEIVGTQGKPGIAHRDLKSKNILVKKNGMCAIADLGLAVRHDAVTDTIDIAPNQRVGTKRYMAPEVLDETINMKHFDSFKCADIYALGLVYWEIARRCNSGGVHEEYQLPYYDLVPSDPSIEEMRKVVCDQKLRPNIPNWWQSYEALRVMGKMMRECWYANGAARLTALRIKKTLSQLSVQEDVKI

ALK(h) = ALK(h) (Homo sapiens, UniProt Q9UM73)
Met(Y1248D)(h) = Met(Y1248D)(h) (Homo sapiens, UniProt P08581, Y1230D)
Tie2(Y897S)(h) = Tie2(Y897S)(h) (Homo sapiens, UniProt Q02763, Y897S)
Chain of Tie2(Y897S)(h) (Q02763 23-1124 Y897S): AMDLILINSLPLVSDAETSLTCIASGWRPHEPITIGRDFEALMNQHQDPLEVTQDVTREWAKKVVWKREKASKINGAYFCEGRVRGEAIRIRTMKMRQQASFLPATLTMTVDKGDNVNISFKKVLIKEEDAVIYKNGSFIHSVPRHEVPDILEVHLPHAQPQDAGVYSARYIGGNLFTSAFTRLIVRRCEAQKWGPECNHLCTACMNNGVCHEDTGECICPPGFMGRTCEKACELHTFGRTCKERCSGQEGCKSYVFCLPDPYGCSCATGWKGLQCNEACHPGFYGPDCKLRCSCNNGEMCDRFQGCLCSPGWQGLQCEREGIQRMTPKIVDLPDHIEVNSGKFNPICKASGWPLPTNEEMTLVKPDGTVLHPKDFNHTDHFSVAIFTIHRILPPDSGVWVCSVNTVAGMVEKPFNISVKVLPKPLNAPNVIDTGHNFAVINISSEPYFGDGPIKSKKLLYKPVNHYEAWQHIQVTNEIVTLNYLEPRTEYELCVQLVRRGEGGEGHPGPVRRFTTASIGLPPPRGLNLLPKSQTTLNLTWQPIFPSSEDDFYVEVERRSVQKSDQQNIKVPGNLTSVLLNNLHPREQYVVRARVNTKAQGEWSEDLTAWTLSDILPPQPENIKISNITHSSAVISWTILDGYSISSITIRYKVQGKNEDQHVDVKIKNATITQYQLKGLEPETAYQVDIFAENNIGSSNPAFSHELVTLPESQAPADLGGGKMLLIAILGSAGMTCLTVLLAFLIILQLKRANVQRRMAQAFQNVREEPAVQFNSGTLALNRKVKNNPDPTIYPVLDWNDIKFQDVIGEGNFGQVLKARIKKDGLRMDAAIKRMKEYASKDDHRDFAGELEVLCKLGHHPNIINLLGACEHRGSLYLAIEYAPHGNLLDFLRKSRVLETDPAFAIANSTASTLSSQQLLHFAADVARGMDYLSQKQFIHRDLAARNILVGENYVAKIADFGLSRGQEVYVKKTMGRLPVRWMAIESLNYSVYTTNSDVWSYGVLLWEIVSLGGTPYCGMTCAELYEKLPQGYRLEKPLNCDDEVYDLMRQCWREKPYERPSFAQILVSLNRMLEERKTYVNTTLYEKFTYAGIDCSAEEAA

CLK3(h) = CLK3(h) (Homo sapiens, UniProt P49761)
PTK5(h) = PTK5(h) (Homo sapiens, UniProt P42685)
Met(Y1248H)(h) = Met(Y1248H)(h) (Homo sapiens, UniProt P08581, Y1230H)
WNK2(h) = WNK2(h) (Homo sapiens, UniProt Q9Y3S1)
MLK1(h) = MLK1(h) (Homo sapiens, UniProt P80192)
Chain of MLK1(h) (P80192 whole entry): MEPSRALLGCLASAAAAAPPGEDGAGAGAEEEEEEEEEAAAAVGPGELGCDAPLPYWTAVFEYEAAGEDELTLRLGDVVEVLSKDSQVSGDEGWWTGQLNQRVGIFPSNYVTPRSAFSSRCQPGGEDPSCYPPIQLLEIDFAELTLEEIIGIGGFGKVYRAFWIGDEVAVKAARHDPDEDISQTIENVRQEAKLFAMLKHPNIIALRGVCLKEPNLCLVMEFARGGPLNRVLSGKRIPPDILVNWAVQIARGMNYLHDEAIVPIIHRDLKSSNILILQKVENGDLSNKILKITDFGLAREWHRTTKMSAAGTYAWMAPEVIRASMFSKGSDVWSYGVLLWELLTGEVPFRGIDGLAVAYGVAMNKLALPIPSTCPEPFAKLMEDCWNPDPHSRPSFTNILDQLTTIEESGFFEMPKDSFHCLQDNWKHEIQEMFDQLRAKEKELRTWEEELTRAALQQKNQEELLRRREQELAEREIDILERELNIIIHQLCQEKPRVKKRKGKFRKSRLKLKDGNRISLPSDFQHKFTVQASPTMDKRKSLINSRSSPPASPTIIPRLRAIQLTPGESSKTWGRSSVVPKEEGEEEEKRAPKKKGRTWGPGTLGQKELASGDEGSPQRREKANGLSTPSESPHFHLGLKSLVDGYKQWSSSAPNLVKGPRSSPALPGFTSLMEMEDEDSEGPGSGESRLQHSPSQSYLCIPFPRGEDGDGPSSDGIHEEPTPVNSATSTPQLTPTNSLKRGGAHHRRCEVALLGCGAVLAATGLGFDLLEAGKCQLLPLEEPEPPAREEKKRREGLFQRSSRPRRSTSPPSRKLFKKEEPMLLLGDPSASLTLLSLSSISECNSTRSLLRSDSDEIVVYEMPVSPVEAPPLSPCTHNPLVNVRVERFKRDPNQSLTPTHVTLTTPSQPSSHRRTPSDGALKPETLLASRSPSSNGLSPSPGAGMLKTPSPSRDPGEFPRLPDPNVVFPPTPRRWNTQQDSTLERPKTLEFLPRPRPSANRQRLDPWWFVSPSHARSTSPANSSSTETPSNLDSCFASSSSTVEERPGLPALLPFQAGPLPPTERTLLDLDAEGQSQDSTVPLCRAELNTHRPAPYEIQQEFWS

PKCμ(h) = target: T2, PKCμ(h) (Homo sapiens, UniProt Q15139)
T2 sequence (Q15139 1-912): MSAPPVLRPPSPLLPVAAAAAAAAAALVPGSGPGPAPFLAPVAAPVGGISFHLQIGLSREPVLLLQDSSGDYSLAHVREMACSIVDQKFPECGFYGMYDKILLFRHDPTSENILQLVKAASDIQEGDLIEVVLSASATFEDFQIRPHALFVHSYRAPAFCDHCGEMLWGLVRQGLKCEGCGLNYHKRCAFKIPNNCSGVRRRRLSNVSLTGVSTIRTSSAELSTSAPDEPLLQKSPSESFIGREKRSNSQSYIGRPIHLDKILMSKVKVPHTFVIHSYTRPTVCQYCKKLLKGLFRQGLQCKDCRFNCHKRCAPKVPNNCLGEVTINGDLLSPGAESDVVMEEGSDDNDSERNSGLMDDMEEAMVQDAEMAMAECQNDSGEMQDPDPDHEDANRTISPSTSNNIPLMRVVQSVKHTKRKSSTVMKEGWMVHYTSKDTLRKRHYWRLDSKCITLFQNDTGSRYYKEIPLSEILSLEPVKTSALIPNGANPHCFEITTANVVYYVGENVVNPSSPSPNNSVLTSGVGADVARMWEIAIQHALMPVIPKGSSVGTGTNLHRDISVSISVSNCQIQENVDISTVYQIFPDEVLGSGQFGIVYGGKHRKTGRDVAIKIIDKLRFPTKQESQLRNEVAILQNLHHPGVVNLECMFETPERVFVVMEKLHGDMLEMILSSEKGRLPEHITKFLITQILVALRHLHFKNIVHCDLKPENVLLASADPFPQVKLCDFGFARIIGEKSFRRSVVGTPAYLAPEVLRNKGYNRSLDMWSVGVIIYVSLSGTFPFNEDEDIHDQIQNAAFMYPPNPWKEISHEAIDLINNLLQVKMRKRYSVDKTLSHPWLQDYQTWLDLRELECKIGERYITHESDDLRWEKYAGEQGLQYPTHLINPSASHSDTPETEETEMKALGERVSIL

GRK6(h) = GRK6(h) (Homo sapiens, UniProt P43250)

Chain of CHK2(I157T)(h) (O96017 whole entry I157T): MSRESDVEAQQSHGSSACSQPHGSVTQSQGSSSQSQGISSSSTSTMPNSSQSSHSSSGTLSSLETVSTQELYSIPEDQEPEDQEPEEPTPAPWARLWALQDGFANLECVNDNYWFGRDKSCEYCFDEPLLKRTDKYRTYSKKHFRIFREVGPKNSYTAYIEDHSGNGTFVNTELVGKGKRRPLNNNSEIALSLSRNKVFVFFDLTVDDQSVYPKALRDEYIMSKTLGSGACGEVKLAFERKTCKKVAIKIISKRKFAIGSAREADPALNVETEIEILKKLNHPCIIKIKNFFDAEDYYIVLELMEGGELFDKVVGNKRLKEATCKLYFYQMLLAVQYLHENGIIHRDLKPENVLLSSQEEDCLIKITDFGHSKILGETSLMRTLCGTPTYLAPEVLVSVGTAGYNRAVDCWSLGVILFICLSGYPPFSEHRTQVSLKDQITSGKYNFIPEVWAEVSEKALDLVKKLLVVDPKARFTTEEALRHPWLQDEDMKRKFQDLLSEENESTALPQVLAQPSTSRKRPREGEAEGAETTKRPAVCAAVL

## H-YARAAARQARAKALARQLGVAA-OH [MMI-0100]
EGFR(L861Q)(h)
  activity at 100 µM: 53%
Ab1(T315I)(h)
  activity at 100 µM: 98%
CHK2(I157T)(h)
  activity at 100 µM: 97%
JAK2(h)
  activity at 100 µM: 89%
cSRC(h)
  activity at 100 µM: 70%
EphA4(h)
  activity at 100 µM: 110%
ALK4(h)
  activity at 100 µM: 124%
ALK(h)
  activity at 100 µM: 118%
Met(Y1248D)(h)
  activity at 100 µM: 87%
Tie2(Y897S)(h)
  activity at 100 µM: 99%
CLK3(h)
  activity at 100 µM: 108%
PTK5(h)
  activity at 100 µM: 135%
Met(Y1248H)(h)
  activity at 100 µM: 88%
WNK2(h)
  activity at 100 µM: 95%
MLK1(h)
  activity at 100 µM: 77%
PKCμ(h)
  activity at 100 µM: 79%
GRK6(h)
  activity at 100 µM: 131%

## HRRIKAWLKKIKALARQLGVAA (Mammalian) [MMI-0500]
EGFR(L861Q)(h)
  % activity: 15%
Ab1(T315I)(h)
  % activity: 16%
CHK2(I157T)(h)
  % activity: 3%
JAK2(h)
  % activity: 49%
cSRC(h)
  % activity: 30%
EphA4(h)
  % activity: 48%
ALK4(h)
  % activity: 81%
ALK(h)
  % activity: 12%
Met(Y1248D)(h)
  % activity: 218%
Tie2(Y897S)(h)
  % activity: 80%
CLK3(h)
  % activity: 76%
PTK5(h)
  % activity: 96%
Met(Y1248H)(h)
  % activity: 126%
WNK2(h)
  % activity: 8%
MLK1(h)
  % activity: 43%
PKCμ(h)
  % activity: 10%
GRK6(h)
  % activity: 174%

## YARAAARQARAKALNRQLGVA (Mammalian) [MMI-0200]
EGFR(L861Q)(h)
  % activity: 74%
Ab1(T315I)(h)
  % activity: 108%
CHK2(I157T)(h)
  % activity: 85%
JAK2(h)
  % activity: 131%
cSRC(h)
  % activity: 32%
EphA4(h)
  % activity: 127%
ALK4(h)
  % activity: 152%
ALK(h)
  % activity: 95%
Met(Y1248D)(h)
  % activity: 118%
Tie2(Y897S)(h)
  % activity: 85%
CLK3(h)
  % activity: 76%
PTK5(h)
  % activity: 108%
Met(Y1248H)(h)
  % activity: 153%
WNK2(h)
  % activity: 94%
MLK1(h)
  % activity: 84%
PKCμ(h)
  % activity: 73%
GRK6(h)
  % activity: 132%
